According to patent US20140087995A1 (published 2014):
Blank lines part the entries; values can stand above or below the binder they belong to. Numbered stars: 1 amine (or outer) side, 2 acyl side, 3 side chain; on linkers, the order of the positions; unused ones are H or OH. Bridge positions count the residues as written; N and C are the ends. Side chains are listed from the residue outwards. Ends that are not written are not given here. * marks the point of attachment. C20 diacid = O=C(O)CCCCCCCCCCCCCCCCCCC(=O)*; γGlu = O=C(O)[C@H](CCC(=O)[*:2])N[*:1]; AEEA = NCCOCCOCC(=O)O

Key:
[1] = molecular target: T1, human amylin receptor (amylin 3(a) receptor: human calcitonin receptor plus RAMP-3) (human, UniProt P30988 25-474; O60896 24-148, limits assumed); assay: cell-based or functional assay
T1 sequence (looked up) 1: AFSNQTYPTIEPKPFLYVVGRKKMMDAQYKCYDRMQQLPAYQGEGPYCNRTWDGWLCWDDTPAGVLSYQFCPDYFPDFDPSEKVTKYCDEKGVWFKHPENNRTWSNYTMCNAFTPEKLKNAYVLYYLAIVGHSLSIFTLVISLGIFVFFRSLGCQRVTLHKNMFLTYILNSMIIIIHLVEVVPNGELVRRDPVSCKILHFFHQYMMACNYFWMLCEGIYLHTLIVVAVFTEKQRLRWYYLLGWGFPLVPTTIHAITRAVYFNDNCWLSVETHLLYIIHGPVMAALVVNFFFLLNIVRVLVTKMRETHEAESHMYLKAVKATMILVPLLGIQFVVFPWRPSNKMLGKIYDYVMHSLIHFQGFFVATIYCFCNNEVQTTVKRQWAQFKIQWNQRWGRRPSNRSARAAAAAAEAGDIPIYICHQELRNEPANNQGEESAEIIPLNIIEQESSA
T1 sequence (looked up) 2: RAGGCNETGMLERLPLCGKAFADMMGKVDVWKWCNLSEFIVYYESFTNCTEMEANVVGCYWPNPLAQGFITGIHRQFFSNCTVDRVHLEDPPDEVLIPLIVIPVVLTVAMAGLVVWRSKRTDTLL

[2] = molecular target: T2, human calcitonin receptor (human, UniProt P30988 25-474); assay: cell-based or functional assay
T2 sequence (looked up): T1 sequence (looked up) 1

- hAmylin-R funct. EC50 [1]: 0.594 nM
- Ratio hCT/hAmylin funct. (hCTR EC50 against hAmylin-R EC50) [2]: 17
- hCTR funct. EC50 [2]: 10.1 nM
B1: N^ε-[2-[2-[2-[[(4S)-4-carboxy-4-(19-carboxynonadecanoylamino)butanoyl]amino]ethoxy]ethoxy]acetyl]Lys[Arg1,Arg17,Pro21,Pro27,His35]-h-amylin (peptide)
peptide: K([AEEA-γGlu-C20 diacid])RCNTATCATQRLANFLRHSSPNFGAIPSSTNVGSHTY-NH2
modifications: disulfide 3-8; N-terminus assumed
SMILES: CC[C@H](C)[C@H](NC(=O)[C@H](C)NC(=O)CNC(=O)[C@H](Cc1ccccc1)NC(=O)[C@H](CC(N)=O)NC(=O)[C@@H]1CCCN1C(=O)[C@H](CO)NC(=O)[C@H](CO)NC(=O)[C@H](Cc1c[nH]cn1)NC(=O)[C@H](CCCNC(=N)N)NC(=O)[C@H](CC(C)C)NC(=O)[C@H](Cc1ccccc1)NC(=O)[C@H](CC(N)=O)NC(=O)[C@H](C)NC(=O)[C@H](CC(C)C)NC(=O)[C@H](CCCNC(=N)N)NC(=O)[C@H](CCC(N)=O)NC(=O)[C@@H](NC(=O)[C@H](C)NC(=O)[C@@H]1CSSC[C@H](NC(=O)[C@H](CCCNC(=N)N)NC(=O)[C@@H](N)CCCCNC(=O)COCCOCCNC(=O)CC[C@H](NC(=O)CCCCCCCCCCCCCCCCCCC(=O)O)C(=O)O)C(=O)N[C@@H](CC(N)=O)C(=O)N[C@@H]([C@@H](C)O)C(=O)N[C@@H](C)C(=O)N[C@@H]([C@@H](C)O)C(=O)N1)[C@@H](C)O)C(=O)N1CCC[C@H]1C(=O)N[C@@H](CO)C(=O)N[C@@H](CO)C(=O)N[C@H](C(=O)N[C@@H](CC(N)=O)C(=O)N[C@H](C(=O)NCC(=O)N[C@@H](CO)C(=O)N[C@@H](Cc1c[nH]cn1)C(=O)N[C@H](C(=O)N[C@@H](Cc1ccc(O)cc1)C(N)=O)[C@@H](C)O)C(C)C)[C@@H](C)O
notes: also called compound 45

- hAmylin-R funct. EC50 [1]: 0.198 nM
- Ratio hCT/hAmylin funct. (hCTR EC50 against hAmylin-R EC50) [2]: 24
- hCTR funct. EC50 [2]: 4.75 nM
B2: N^ε-[(4S)-4-carboxy-4-(19-carboxynonadecanoylamino)butanoyl]Lys[Arg1,Arg17,Pro21,Pro27,His35]-h-amylin (peptide)
peptide: K([γGlu-C20 diacid])RCNTATCATQRLANFLRHSSPNFGAIPSSTNVGSHTY-NH2
modifications: disulfide 3-8; N-terminus assumed
SMILES: CC[C@H](C)[C@H](NC(=O)[C@H](C)NC(=O)CNC(=O)[C@H](Cc1ccccc1)NC(=O)[C@H](CC(N)=O)NC(=O)[C@@H]1CCCN1C(=O)[C@H](CO)NC(=O)[C@H](CO)NC(=O)[C@H](Cc1c[nH]cn1)NC(=O)[C@H](CCCNC(=N)N)NC(=O)[C@H](CC(C)C)NC(=O)[C@H](Cc1ccccc1)NC(=O)[C@H](CC(N)=O)NC(=O)[C@H](C)NC(=O)[C@H](CC(C)C)NC(=O)[C@H](CCCNC(=N)N)NC(=O)[C@H](CCC(N)=O)NC(=O)[C@@H](NC(=O)[C@H](C)NC(=O)[C@@H]1CSSC[C@H](NC(=O)[C@H](CCCNC(=N)N)NC(=O)[C@@H](N)CCCCNC(=O)CC[C@H](NC(=O)CCCCCCCCCCCCCCCCCCC(=O)O)C(=O)O)C(=O)N[C@@H](CC(N)=O)C(=O)N[C@@H]([C@@H](C)O)C(=O)N[C@@H](C)C(=O)N[C@@H]([C@@H](C)O)C(=O)N1)[C@@H](C)O)C(=O)N1CCC[C@H]1C(=O)N[C@@H](CO)C(=O)N[C@@H](CO)C(=O)N[C@H](C(=O)N[C@@H](CC(N)=O)C(=O)N[C@H](C(=O)NCC(=O)N[C@@H](CO)C(=O)N[C@@H](Cc1c[nH]cn1)C(=O)N[C@H](C(=O)N[C@@H](Cc1ccc(O)cc1)C(N)=O)[C@@H](C)O)C(C)C)[C@@H](C)O
notes: also called compound 44

- hAmylin-R funct. EC50 [1]: 0.088 nM
- Ratio hCT/hAmylin funct. (hCTR EC50 against hAmylin-R EC50) [2]: 10.2
- hCTR funct. EC50 [2]: 0.899 nM
B3: N^-1-[(4S)-4-carboxy-4-(19-carboxynonadecanoylamino)butanoyl]-Gly[Arg1,Arg17,Pro21,Pro27]-h-amylin (peptide)
peptide: {C20 diacid-γGlu}-GRCNTATCATQRLANFLRHSSPNFGAIPSSTNVGSNTY-NH2
modifications: disulfide 3-8
SMILES: CC[C@H](C)[C@H](NC(=O)[C@H](C)NC(=O)CNC(=O)[C@H](Cc1ccccc1)NC(=O)[C@H](CC(N)=O)NC(=O)[C@@H]1CCCN1C(=O)[C@H](CO)NC(=O)[C@H](CO)NC(=O)[C@H](Cc1c[nH]cn1)NC(=O)[C@H](CCCNC(=N)N)NC(=O)[C@H](CC(C)C)NC(=O)[C@H](Cc1ccccc1)NC(=O)[C@H](CC(N)=O)NC(=O)[C@H](C)NC(=O)[C@H](CC(C)C)NC(=O)[C@H](CCCNC(=N)N)NC(=O)[C@H](CCC(N)=O)NC(=O)[C@@H](NC(=O)[C@H](C)NC(=O)[C@@H]1CSSC[C@H](NC(=O)[C@H](CCCNC(=N)N)NC(=O)CNC(=O)CC[C@H](NC(=O)CCCCCCCCCCCCCCCCCCC(=O)O)C(=O)O)C(=O)N[C@@H](CC(N)=O)C(=O)N[C@@H]([C@@H](C)O)C(=O)N[C@@H](C)C(=O)N[C@@H]([C@@H](C)O)C(=O)N1)[C@@H](C)O)C(=O)N1CCC[C@H]1C(=O)N[C@@H](CO)C(=O)N[C@@H](CO)C(=O)N[C@H](C(=O)N[C@@H](CC(N)=O)C(=O)N[C@H](C(=O)NCC(=O)N[C@@H](CO)C(=O)N[C@@H](CC(N)=O)C(=O)N[C@H](C(=O)N[C@@H](Cc1ccc(O)cc1)C(N)=O)[C@@H](C)O)C(C)C)[C@@H](C)O
notes: also called compound 46
